Data reported in patent US20230174608A1 (published 2023).

What was measured:
[1] = target: GLP-1 receptor (GLP-1R), stably expressed on HEK293 cells; experiment: cell-based or functional assay
[2] = target: Glucagon receptor (GCGR), stably expressed on HEK293 cells; experiment: cell-based or functional assay

Binder	GLP-1R (nM EC50), receptor-mediated cAMP production in HEK293 cells [1]	GCGR (nM EC50), receptor-mediated cAMP production in HEK293 cells [2]
HXQGTFTSDYSKYLDERAAKEFIAWLEGG (HELM PEPTIDE1{H.[Aib].Q.G.T.F.T.S.D.Y.S.K.Y.L.D.E.R.A.A.K.E.F.I.A.W.L.E.G.G.[am]}|PEPTIDE2{[CCCCCCCCCCCCCCCC(=O)[*:2]].[gGlu]}$PEPTIDE1,PEPTIDE2,20:R3-2:R2$$$V2.0; N-terminus assumed; SMILES CCCCCCCCCCCCCCCC(=O)N[C@@H](CCC(=O)NCCCC[C@H](NC(=O)[C@H](C)NC(=O)[C@H](C)NC(=O)[C@H](CCCNC(=N)N)NC(=O)[C@H](CCC(=O)O)NC(=O)[C@H](CC(=O)O)NC(=O)[C@H](CC(C)C)NC(=O)[C@H](Cc1ccc(O)cc1)NC(=O)[C@H](CCCCN)NC(=O)[C@H](CO)NC(=O)[C@H](Cc1ccc(O)cc1)NC(=O)[C@H](CC(=O)O)NC(=O)[C@H](CO)NC(=O)[C@@H](NC(=O)[C@H](Cc1ccccc1)NC(=O)[C@@H](NC(=O)CNC(=O)[C@H](CCC(N)=O)NC(=O)C(C)(C)NC(=O)[C@@H](N)Cc1c[nH]cn1)[C@@H](C)O)[C@@H](C)O)C(=O)N[C@@H](CCC(=O)O)C(=O)N[C@@H](Cc1ccccc1)C(=O)N[C@H](C(=O)N[C@@H](C)C(=O)N[C@@H](Cc1c[nH]c2ccccc12)C(=O)N[C@@H](CC(C)C)C(=O)N[C@@H](CCC(=O)O)C(=O)NCC(=O)NCC(N)=O)[C@@H](C)CC)C(=O)O) [dgc014]	0.516 nM	0.821 nM
HXQGTFTSDYSKYLDERAAKEFIAWLEGG (HELM PEPTIDE1{H.[Aib].Q.G.T.F.T.S.D.Y.S.K.Y.L.D.E.R.A.A.K.E.F.I.A.W.L.E.G.G.[am]}|PEPTIDE2{[CCCCCCCCCCCCCCCC(=O)[*:2]].[gGlu].[gGlu]}$PEPTIDE1,PEPTIDE2,20:R3-3:R2$$$V2.0; N-terminus assumed; SMILES CCCCCCCCCCCCCCCC(=O)N[C@@H](CCC(=O)N[C@@H](CCC(=O)NCCCC[C@H](NC(=O)[C@H](C)NC(=O)[C@H](C)NC(=O)[C@H](CCCNC(=N)N)NC(=O)[C@H](CCC(=O)O)NC(=O)[C@H](CC(=O)O)NC(=O)[C@H](CC(C)C)NC(=O)[C@H](Cc1ccc(O)cc1)NC(=O)[C@H](CCCCN)NC(=O)[C@H](CO)NC(=O)[C@H](Cc1ccc(O)cc1)NC(=O)[C@H](CC(=O)O)NC(=O)[C@H](CO)NC(=O)[C@@H](NC(=O)[C@H](Cc1ccccc1)NC(=O)[C@@H](NC(=O)CNC(=O)[C@H](CCC(N)=O)NC(=O)C(C)(C)NC(=O)[C@@H](N)Cc1c[nH]cn1)[C@@H](C)O)[C@@H](C)O)C(=O)N[C@@H](CCC(=O)O)C(=O)N[C@@H](Cc1ccccc1)C(=O)N[C@H](C(=O)N[C@@H](C)C(=O)N[C@@H](Cc1c[nH]c2ccccc12)C(=O)N[C@@H](CC(C)C)C(=O)N[C@@H](CCC(=O)O)C(=O)NCC(=O)NCC(N)=O)[C@@H](C)CC)C(=O)O)C(=O)O) [dgc013]	0.319 nM	1.99 nM
HXQGTFTSDYSKYLDERAAKEFIAWLEGEG (HELM PEPTIDE1{H.[Aib].Q.G.T.F.T.S.D.Y.S.K.Y.L.D.E.R.A.A.K.E.F.I.A.W.L.E.G.E.G.[am]}|PEPTIDE2{[CCCCCCCCCCCCCCCC(=O)[*:2]].[gGlu]}$PEPTIDE1,PEPTIDE2,20:R3-2:R2$$$V2.0; N-terminus assumed; SMILES CCCCCCCCCCCCCCCC(=O)N[C@@H](CCC(=O)NCCCC[C@H](NC(=O)[C@H](C)NC(=O)[C@H](C)NC(=O)[C@H](CCCNC(=N)N)NC(=O)[C@H](CCC(=O)O)NC(=O)[C@H](CC(=O)O)NC(=O)[C@H](CC(C)C)NC(=O)[C@H](Cc1ccc(O)cc1)NC(=O)[C@H](CCCCN)NC(=O)[C@H](CO)NC(=O)[C@H](Cc1ccc(O)cc1)NC(=O)[C@H](CC(=O)O)NC(=O)[C@H](CO)NC(=O)[C@@H](NC(=O)[C@H](Cc1ccccc1)NC(=O)[C@@H](NC(=O)CNC(=O)[C@H](CCC(N)=O)NC(=O)C(C)(C)NC(=O)[C@@H](N)Cc1c[nH]cn1)[C@@H](C)O)[C@@H](C)O)C(=O)N[C@@H](CCC(=O)O)C(=O)N[C@@H](Cc1ccccc1)C(=O)N[C@H](C(=O)N[C@@H](C)C(=O)N[C@@H](Cc1c[nH]c2ccccc12)C(=O)N[C@@H](CC(C)C)C(=O)N[C@@H](CCC(=O)O)C(=O)NCC(=O)N[C@@H](CCC(=O)O)C(=O)NCC(N)=O)[C@@H](C)CC)C(=O)O) [dgc018]	0.401 nM	1.3 nM
HXQGTFTSDYSKYLEERAAKEFIAWLEGG (HELM PEPTIDE1{H.[Aib].Q.G.T.F.T.S.D.Y.S.K.Y.L.E.E.R.A.A.K.E.F.I.A.W.L.E.G.G.[am]}|PEPTIDE2{[CCCCCCCCCCCCCCCC(=O)[*:2]].[gGlu].[gGlu]}$PEPTIDE1,PEPTIDE2,20:R3-3:R2$$$V2.0; N-terminus assumed; SMILES CCCCCCCCCCCCCCCC(=O)N[C@@H](CCC(=O)N[C@@H](CCC(=O)NCCCC[C@H](NC(=O)[C@H](C)NC(=O)[C@H](C)NC(=O)[C@H](CCCNC(=N)N)NC(=O)[C@H](CCC(=O)O)NC(=O)[C@H](CCC(=O)O)NC(=O)[C@H](CC(C)C)NC(=O)[C@H](Cc1ccc(O)cc1)NC(=O)[C@H](CCCCN)NC(=O)[C@H](CO)NC(=O)[C@H](Cc1ccc(O)cc1)NC(=O)[C@H](CC(=O)O)NC(=O)[C@H](CO)NC(=O)[C@@H](NC(=O)[C@H](Cc1ccccc1)NC(=O)[C@@H](NC(=O)CNC(=O)[C@H](CCC(N)=O)NC(=O)C(C)(C)NC(=O)[C@@H](N)Cc1c[nH]cn1)[C@@H](C)O)[C@@H](C)O)C(=O)N[C@@H](CCC(=O)O)C(=O)N[C@@H](Cc1ccccc1)C(=O)N[C@H](C(=O)N[C@@H](C)C(=O)N[C@@H](Cc1c[nH]c2ccccc12)C(=O)N[C@@H](CC(C)C)C(=O)N[C@@H](CCC(=O)O)C(=O)NCC(=O)NCC(N)=O)[C@@H](C)CC)C(=O)O)C(=O)O) [dgc016]	1.23 nM	0.342 nM
HXQGTFTSDYSKYLEERAAKEFIAWLEGG (HELM PEPTIDE1{H.[Aib].Q.G.T.F.T.S.D.Y.S.K.Y.L.E.E.R.A.A.K.E.F.I.A.W.L.E.G.G.[am]}|PEPTIDE2{[CCCCCCCCCCCCCCCC(=O)[*:2]].[gGlu]}$PEPTIDE1,PEPTIDE2,20:R3-2:R2$$$V2.0; N-terminus assumed; SMILES CCCCCCCCCCCCCCCC(=O)N[C@@H](CCC(=O)NCCCC[C@H](NC(=O)[C@H](C)NC(=O)[C@H](C)NC(=O)[C@H](CCCNC(=N)N)NC(=O)[C@H](CCC(=O)O)NC(=O)[C@H](CCC(=O)O)NC(=O)[C@H](CC(C)C)NC(=O)[C@H](Cc1ccc(O)cc1)NC(=O)[C@H](CCCCN)NC(=O)[C@H](CO)NC(=O)[C@H](Cc1ccc(O)cc1)NC(=O)[C@H](CC(=O)O)NC(=O)[C@H](CO)NC(=O)[C@@H](NC(=O)[C@H](Cc1ccccc1)NC(=O)[C@@H](NC(=O)CNC(=O)[C@H](CCC(N)=O)NC(=O)C(C)(C)NC(=O)[C@@H](N)Cc1c[nH]cn1)[C@@H](C)O)[C@@H](C)O)C(=O)N[C@@H](CCC(=O)O)C(=O)N[C@@H](Cc1ccccc1)C(=O)N[C@H](C(=O)N[C@@H](C)C(=O)N[C@@H](Cc1c[nH]c2ccccc12)C(=O)N[C@@H](CC(C)C)C(=O)N[C@@H](CCC(=O)O)C(=O)NCC(=O)NCC(N)=O)[C@@H](C)CC)C(=O)O) [dgc015]	0.899 nM	1.53 nM
HXQGTFTSDYSKYLEERAAKEFIAWLEGEG (HELM PEPTIDE1{H.[Aib].Q.G.T.F.T.S.D.Y.S.K.Y.L.E.E.R.A.A.K.E.F.I.A.W.L.E.G.E.G.[am]}|PEPTIDE2{[CCCCCCCCCCCCCCCC(=O)[*:2]].[gGlu]}$PEPTIDE1,PEPTIDE2,20:R3-2:R2$$$V2.0; N-terminus assumed; SMILES CCCCCCCCCCCCCCCC(=O)N[C@@H](CCC(=O)NCCCC[C@H](NC(=O)[C@H](C)NC(=O)[C@H](C)NC(=O)[C@H](CCCNC(=N)N)NC(=O)[C@H](CCC(=O)O)NC(=O)[C@H](CCC(=O)O)NC(=O)[C@H](CC(C)C)NC(=O)[C@H](Cc1ccc(O)cc1)NC(=O)[C@H](CCCCN)NC(=O)[C@H](CO)NC(=O)[C@H](Cc1ccc(O)cc1)NC(=O)[C@H](CC(=O)O)NC(=O)[C@H](CO)NC(=O)[C@@H](NC(=O)[C@H](Cc1ccccc1)NC(=O)[C@@H](NC(=O)CNC(=O)[C@H](CCC(N)=O)NC(=O)C(C)(C)NC(=O)[C@@H](N)Cc1c[nH]cn1)[C@@H](C)O)[C@@H](C)O)C(=O)N[C@@H](CCC(=O)O)C(=O)N[C@@H](Cc1ccccc1)C(=O)N[C@H](C(=O)N[C@@H](C)C(=O)N[C@@H](Cc1c[nH]c2ccccc12)C(=O)N[C@@H](CC(C)C)C(=O)N[C@@H](CCC(=O)O)C(=O)NCC(=O)N[C@@H](CCC(=O)O)C(=O)NCC(N)=O)[C@@H](C)CC)C(=O)O) [dgc019]	0.792 nM	1.83 nM
HXQGTFTSDYSKYLDEKAAKEFIAWLEGG (HELM PEPTIDE1{H.[Aib].Q.G.T.F.T.S.D.Y.S.K.Y.L.D.E.K.A.A.K.E.F.I.A.W.L.E.G.G.[am]}|PEPTIDE2{[CCCCCCCCCCCCCCCC(=O)[*:2]].[gGlu]}$PEPTIDE1,PEPTIDE2,20:R3-2:R2$$$V2.0; N-terminus assumed; SMILES CCCCCCCCCCCCCCCC(=O)N[C@@H](CCC(=O)NCCCC[C@H](NC(=O)[C@H](C)NC(=O)[C@H](C)NC(=O)[C@H](CCCCN)NC(=O)[C@H](CCC(=O)O)NC(=O)[C@H](CC(=O)O)NC(=O)[C@H](CC(C)C)NC(=O)[C@H](Cc1ccc(O)cc1)NC(=O)[C@H](CCCCN)NC(=O)[C@H](CO)NC(=O)[C@H](Cc1ccc(O)cc1)NC(=O)[C@H](CC(=O)O)NC(=O)[C@H](CO)NC(=O)[C@@H](NC(=O)[C@H](Cc1ccccc1)NC(=O)[C@@H](NC(=O)CNC(=O)[C@H](CCC(N)=O)NC(=O)C(C)(C)NC(=O)[C@@H](N)Cc1c[nH]cn1)[C@@H](C)O)[C@@H](C)O)C(=O)N[C@@H](CCC(=O)O)C(=O)N[C@@H](Cc1ccccc1)C(=O)N[C@H](C(=O)N[C@@H](C)C(=O)N[C@@H](Cc1c[nH]c2ccccc12)C(=O)N[C@@H](CC(C)C)C(=O)N[C@@H](CCC(=O)O)C(=O)NCC(=O)NCC(N)=O)[C@@H](C)CC)C(=O)O) [dgc017]	0.627 nM	3.95 nM
